Each sequence was assayed against SHP2-C SH2 (assay: SH2 binding enrichment of the phosphorylated peptide, bacterial display (enrichment ratio); higher = better substrate or ligand; peptides without Tyr show the background).
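Wherever SH2 binding enrichment of the phosphorylated peptide, bacterial display is given: peptide library displayed on the E. coli surface as eCPX fusions, selected cells deep-sequenced, score is each peptide's frequency after selection divided by its frequency in the input.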
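Wherever phosphorylation enrichment, bacterial display is given: 11-residue human phosphosite peptides and single-mutation variants displayed on the E. coli surface, counted by deep sequencing, each peptide's frequency after selection divided by its frequency in the unselected input library; frequency after pTyr selection over input frequency; kinase dosed for 20-30% of maximal phosphorylation in three min.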

Sequence	SH2 binding enrichment
GPKFVYDEIDN [ACOX1_Y232_G231V]	0.653
IVFVIYDEVVK [SLC25A1_Y297]	1.61
ASFGPYTRVQS [FOXL2_Y258_YF]	4.01
PLKYLYPNIDR [STAT1_Y668_K673R]	0.652
ANSSFYSTRSA [NUMA1_Y1836]	0.659
REHTVYWEPRK [MAGEA4_Y240_G241W]	1.39
RGRSTYFWPSP [GAGE12J_Y9_R13S_YF]	0.524
FDDIANIRKTL [PIK3CA_Y1021_Y1021N]	0.635
SRPTQYSSFAC [SPEM2_Y104_S108A]	2.18
VKFGAYINDFK [GLB1_Y488_N484K_YF]	1.06
LDFNEYFRFLN [HPRT1_Y198_D201Y_YF]	1.2
VNFGAYINNFK [GLB1_Y488_D491N_YF]	0.803
DLAGRYFALRS [CKB_Y173_K177R_YF]	0.628
MSPPGYKLLTG [GJA1_Y286_V289L]	0.67
VATRWYPSPEL [CDKL5_Y177_R178P]	0.794
FYRKVYHLASV [RBL1_Y796]	1.31
IYSGIYYKPES [L2HGDH_Y102_H98Y]	1.22
GGMAKYTRLHN [EHHADH_Y4_E3K]	1.42
KLRMEYLSLMH [NCKIPSD_Y660]	1.97
NFRTTYINANE [KCNH2_Y475_V476I]	1.34
TSRVLYPNDNF [PYGM_Y281_I276T]	0.771
DDPRRYQKFGF [OAS1_Y362_YF]	0.909
YSGLAYTMERS [GLUD1_Y512_H507Y]	1.48
LLQKTYNFNVL [SLC4A1_Y553_P548L_YF]	0.916
HGAGHYEDTIL [ALK_Y1604_P1599H]	0.791
PKSLFYLLLKP [TRPC6_Y775_L780P]	1
LEYAKYGSLRG [RET_Y809_V804L]	0.785
KNAEKYAEEDR [HSPA9_Y568]	0.819
QMEKIYTQQIQ [CCNB1IP1_Y125]	0.398

Each sequence was assayed against Grb2 SH2 (UniProt P62993) in the same assay as above.
Sequence of Grb2 SH2 (P62993 whole entry, looked up): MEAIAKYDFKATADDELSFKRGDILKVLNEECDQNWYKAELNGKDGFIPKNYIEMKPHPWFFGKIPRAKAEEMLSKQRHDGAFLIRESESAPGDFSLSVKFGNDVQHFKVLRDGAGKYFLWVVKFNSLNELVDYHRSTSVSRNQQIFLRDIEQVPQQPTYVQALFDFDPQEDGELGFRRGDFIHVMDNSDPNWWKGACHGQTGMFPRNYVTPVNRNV

Sequence	SH2 binding enrichment
GPKFVYDEIDN [ACOX1_Y232_G231V]	0.709
IVFVIYDEVVK [SLC25A1_Y297]	1.5
ASFGPYTRVQS [FOXL2_Y258_YF]	0.655
PLKYLYPNIDR [STAT1_Y668_K673R]	0.8
ANSSFYSTRSA [NUMA1_Y1836]	0.713
REHTVYWEPRK [MAGEA4_Y240_G241W]	1.08
RGRSTYFWPSP [GAGE12J_Y9_R13S_YF]	0.557
FDDIANIRKTL [PIK3CA_Y1021_Y1021N]	0.858
SRPTQYSSFAC [SPEM2_Y104_S108A]	0.984
VKFGAYINDFK [GLB1_Y488_N484K_YF]	4.55
LDFNEYFRFLN [HPRT1_Y198_D201Y_YF]	1.49
VNFGAYINNFK [GLB1_Y488_D491N_YF]	0.834
DLAGRYFALRS [CKB_Y173_K177R_YF]	0.905
MSPPGYKLLTG [GJA1_Y286_V289L]	0.828
VATRWYPSPEL [CDKL5_Y177_R178P]	1.23
FYRKVYHLASV [RBL1_Y796]	1.15
IYSGIYYKPES [L2HGDH_Y102_H98Y]	1.01
GGMAKYTRLHN [EHHADH_Y4_E3K]	1.12
KLRMEYLSLMH [NCKIPSD_Y660]	2.08
NFRTTYINANE [KCNH2_Y475_V476I]	5.07
TSRVLYPNDNF [PYGM_Y281_I276T]	0.922
DDPRRYQKFGF [OAS1_Y362_YF]	1.15
YSGLAYTMERS [GLUD1_Y512_H507Y]	0.682
LLQKTYNFNVL [SLC4A1_Y553_P548L_YF]	1.09
HGAGHYEDTIL [ALK_Y1604_P1599H]	0.775
PKSLFYLLLKP [TRPC6_Y775_L780P]	1.16
LEYAKYGSLRG [RET_Y809_V804L]	0.619
KNAEKYAEEDR [HSPA9_Y568]	0.992
QMEKIYTQQIQ [CCNB1IP1_Y125]	0.807

What follows are sequences tested against c-Src SH2 in the same assay as above.

Sequence	SH2 binding enrichment
GPKFVYDEIDN [ACOX1_Y232_G231V]	24.5
IVFVIYDEVVK [SLC25A1_Y297]	1.27
ASFGPYTRVQS [FOXL2_Y258_YF]	1.43
PLKYLYPNIDR [STAT1_Y668_K673R]	1.93
ANSSFYSTRSA [NUMA1_Y1836]	0.412
REHTVYWEPRK [MAGEA4_Y240_G241W]	0.724
RGRSTYFWPSP [GAGE12J_Y9_R13S_YF]	0.491
FDDIANIRKTL [PIK3CA_Y1021_Y1021N]	0.547
SRPTQYSSFAC [SPEM2_Y104_S108A]	0.825
VKFGAYINDFK [GLB1_Y488_N484K_YF]	1.3
LDFNEYFRFLN [HPRT1_Y198_D201Y_YF]	0.719
VNFGAYINNFK [GLB1_Y488_D491N_YF]	0.589
DLAGRYFALRS [CKB_Y173_K177R_YF]	0.738
MSPPGYKLLTG [GJA1_Y286_V289L]	0.488
VATRWYPSPEL [CDKL5_Y177_R178P]	0.907
FYRKVYHLASV [RBL1_Y796]	0.715
IYSGIYYKPES [L2HGDH_Y102_H98Y]	1.28
GGMAKYTRLHN [EHHADH_Y4_E3K]	1.43
KLRMEYLSLMH [NCKIPSD_Y660]	1.44
NFRTTYINANE [KCNH2_Y475_V476I]	0.745
TSRVLYPNDNF [PYGM_Y281_I276T]	0.643
DDPRRYQKFGF [OAS1_Y362_YF]	0.467
YSGLAYTMERS [GLUD1_Y512_H507Y]	1.59
LLQKTYNFNVL [SLC4A1_Y553_P548L_YF]	0.593
HGAGHYEDTIL [ALK_Y1604_P1599H]	2.81
PKSLFYLLLKP [TRPC6_Y775_L780P]	0.851
LEYAKYGSLRG [RET_Y809_V804L]	0.529
KNAEKYAEEDR [HSPA9_Y568]	0.624
QMEKIYTQQIQ [CCNB1IP1_Y125]	0.478

These sequences were tested against Fes (UniProt P07332) (assay: phosphorylation enrichment, bacterial display (enrichment ratio); higher = better substrate or ligand; peptides without Tyr show the background).
Sequence of Fes (P07332 whole entry, looked up): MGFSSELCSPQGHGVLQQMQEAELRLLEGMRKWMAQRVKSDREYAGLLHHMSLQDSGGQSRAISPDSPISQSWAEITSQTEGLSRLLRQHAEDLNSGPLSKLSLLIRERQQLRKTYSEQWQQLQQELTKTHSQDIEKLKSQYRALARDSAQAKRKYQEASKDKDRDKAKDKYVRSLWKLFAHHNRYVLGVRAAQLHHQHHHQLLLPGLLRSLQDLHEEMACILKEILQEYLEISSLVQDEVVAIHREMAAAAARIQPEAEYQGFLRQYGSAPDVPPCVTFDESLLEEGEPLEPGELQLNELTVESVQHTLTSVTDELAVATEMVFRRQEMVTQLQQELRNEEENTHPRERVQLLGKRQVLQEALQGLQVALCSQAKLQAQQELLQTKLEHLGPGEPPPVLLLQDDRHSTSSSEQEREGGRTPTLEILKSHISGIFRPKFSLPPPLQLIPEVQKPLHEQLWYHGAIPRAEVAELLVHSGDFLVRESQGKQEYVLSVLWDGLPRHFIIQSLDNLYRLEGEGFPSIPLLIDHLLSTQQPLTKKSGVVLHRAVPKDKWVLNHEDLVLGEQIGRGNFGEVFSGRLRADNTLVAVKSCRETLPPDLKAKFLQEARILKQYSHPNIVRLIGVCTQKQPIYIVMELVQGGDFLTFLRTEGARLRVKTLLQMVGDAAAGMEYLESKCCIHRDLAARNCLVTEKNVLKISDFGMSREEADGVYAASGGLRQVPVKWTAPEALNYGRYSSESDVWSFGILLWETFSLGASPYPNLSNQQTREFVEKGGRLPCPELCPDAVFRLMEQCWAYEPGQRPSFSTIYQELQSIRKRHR

Sequence	phosphorylation enrichment
GPKFVYDEIDN [ACOX1_Y232_G231V]	1.04
IVFVIYDEVVK [SLC25A1_Y297]	1.19
ASFGPYTRVQS [FOXL2_Y258_YF]	0.606
PLKYLYPNIDR [STAT1_Y668_K673R]	1.38
ANSSFYSTRSA [NUMA1_Y1836]	0.568
REHTVYWEPRK [MAGEA4_Y240_G241W]	0.831
RGRSTYFWPSP [GAGE12J_Y9_R13S_YF]	0.564
FDDIANIRKTL [PIK3CA_Y1021_Y1021N]	0.746
SRPTQYSSFAC [SPEM2_Y104_S108A]	0.727
VKFGAYINDFK [GLB1_Y488_N484K_YF]	1.02
LDFNEYFRFLN [HPRT1_Y198_D201Y_YF]	1.29
VNFGAYINNFK [GLB1_Y488_D491N_YF]	0.912
DLAGRYFALRS [CKB_Y173_K177R_YF]	0.579
MSPPGYKLLTG [GJA1_Y286_V289L]	0.756
VATRWYPSPEL [CDKL5_Y177_R178P]	0.953
FYRKVYHLASV [RBL1_Y796]	0.745
IYSGIYYKPES [L2HGDH_Y102_H98Y]	9.02
GGMAKYTRLHN [EHHADH_Y4_E3K]	0.542
KLRMEYLSLMH [NCKIPSD_Y660]	0.991
NFRTTYINANE [KCNH2_Y475_V476I]	0.819
TSRVLYPNDNF [PYGM_Y281_I276T]	0.7
DDPRRYQKFGF [OAS1_Y362_YF]	0.667
YSGLAYTMERS [GLUD1_Y512_H507Y]	0.833
LLQKTYNFNVL [SLC4A1_Y553_P548L_YF]	1.2
HGAGHYEDTIL [ALK_Y1604_P1599H]	1.17
PKSLFYLLLKP [TRPC6_Y775_L780P]	2.1
LEYAKYGSLRG [RET_Y809_V804L]	0.765
KNAEKYAEEDR [HSPA9_Y568]	1.1
QMEKIYTQQIQ [CCNB1IP1_Y125]	1.06

— the supplement of paper PMC10065799, “High-throughput profiling of sequence recognition by tyrosine kinases and SH2 domains using bacterial peptide display” (eLife, 2023)
